Laboratory results: the domain aggregation screens of Martell et al. (2025)

Test: soluble fraction after stress (log2 fold change); higher = more stays soluble; pooled small domains, quantitative proteomics
Conditions: stress: 75 degC
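Also: 20 min heating vs room temperature control held 20 min.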

HMTPTRQATVSVAALNVREQPSLQGRRLGKLTQGTTLTVVGPPGEWLKIEYKGETGFVYASYTSLG
soluble fraction (log2): -2.01

HMTPTVEAAKEEVLRVLASAAPRGLTRTELEAEVSFRRTKLRDTLVELERIGRIDSVGRRGNATTYRLIG
soluble fraction (log2): -1.44

HMTPVEVNARGVHVDFSKGGILLEDVVRHLILEALRASEWKRGPAAQLLGISKETLRYRMEKYRLYPP
soluble fraction (log2): -2.43

HMTPYEVLVYESLKQKILSGGYAAGEKIPEQSVSEELGVSRSPLRSAIRRLASEGLIEYYPYRGAFVKA
soluble fraction (log2): -1.06

HMTQEAMRSLRKSLQNLSSRQQVIFMLRHYEGLALKEIAEHLGLETGTVKAHLHRAVTQLRKDLVE
soluble fraction (log2): -1.85

HMTQHDIVPLMLKMVDVLTQFVELDIPFLQQERQTRLAALNAMMGRADVSLAEKYRRIMEAYQVETEYG
soluble fraction (log2): -0.0856

HMTQLEVDLFERLITISGVGPRLALAVLSGLEPPDLLRAIQDSDIVRLQGIPGVGKKTAERISLELKDKLS
soluble fraction (log2): -1.35

HMTQQYVEWKVYNVTTIKNKYGFRVKLIFQDGSDATQQKGGFTSKKAAEQARTEVIGQLYSNTYVVY
soluble fraction (log2): -4.59

HMTQSGLTQWEFNMLRQALIEMLGEKPGSVFELARLLPLEQEKNVQALRFLLDHDDQFHLKDEYISFVKRT
soluble fraction (log2): -2.34

HMTQTAVFSKGEQEYYFPLSKVLFFETDGNTINVHTADDIYETRYRLYELEEMLPGSFMRISKSAVVNTNR
soluble fraction (log2): 0.00772

HMTRAEVQALLEKQAKDFEVEVVHRGWKKTVQTPEFAGWYSQQPAEIKALAESDDPAVAIRMLDLFSGTK
soluble fraction (log2): -0.0943

HMTRETTQAWWEARQTLPSGEQRSAASLSQEASHVRRFYRWAMQQGLTDRNPADWLPDVRQK
soluble fraction (log2): -0.603

HMTRIHEEVVNQVHDLVKEGRFKAGDQLPSERELAEIFKVSRTSVREALRALETQGLIISRTGMGNFIAD
soluble fraction (log2): -0.249

HMTRILTEDDIVNFLIRQPDTAYIIAKSFNENERKVKELLDLLIKKNKVREEIVNGVVSYAVN
soluble fraction (log2): -0.229

HMTRKQTIYEFLRRMKSQHGLDAVYSTEEIANAVGVSRANVSSDLNRLFEEQLVEKLPGWPVKYRA
soluble fraction (log2): -0.344

HMTRNEFMTALRKRLSHLPAEEQDAALKYYEEYFDEAESEEEAARQLGSPDAIADRILADYGAG
soluble fraction (log2): 0.327

HMTRPLVILEDVKFPSYNEIVSLTLPDGTRRGGQVLEVSGNKAIVQVFEGTSGIDVKDTHIELTKSS
soluble fraction (log2): 0.237

HMTRQEFIRKLQEALNGKLDAATIQDHLKFYDDYIIEEMRKGKSEQEVLELLGDPWAIAKTIVDAS
soluble fraction (log2): 0.669

HMTRQKEAILALLTDSRGEALSASELLARLTRSGSSIGRTTVYRLLSQLVDDGVVRAWRDASRGITLYELS
soluble fraction (log2): -1.1

HMTRQPSAKEHAVLTAVKEGLRRDGRAPTVRALADMTGAASTSTVQRRISALIDLGLLRRTDGTLEVVE
soluble fraction (log2): 0.0806

HMTRRVIRAPAAGIMRSNVKLGDLVKEGDVIAWIGEHEIKAPLTGMVRGLLNDGLAVVGGFKIGDI
soluble fraction (log2): 0.286

HMTSEPFYNPRRPQPYWTSETDRHTTYADAVRALAREFSETPEWVESNMGETNDLQEIRRNLSRVKSG
soluble fraction (log2): 0.125

HMTSESWAEKSRSLAAAGLIVMGRDAQLKIEGLTNLDPLIEAATASSTRLLTGQTIDELLTIVP
soluble fraction (log2): -0.551

HMTSEVLTNATIVKMVKAKLSDDIIIDEINNARVNFDVSPEGIKSLTAQNVTEPVIETMKKAVAAQESI
soluble fraction (log2): 0.467

HMTSFDVMLKSAGANKLAVVKLVKELTGLGLKEAKDIVDAAPSKVKEGVSKEEAEELQKQLTGAGAEVEL
soluble fraction (log2): -0.113

HMTSHYTVLGVKETDTIEMIRTHYRKLILQFHPDKNQHLTEEERKKLEVKVLQIREAYEKIKKEK
soluble fraction (log2): -0.433

HMTSIISLAKARSIALQKVPGATSKNIHLSLDDEDDKQVYEGEIKYKQMEYVFEIDAKTGTFLKWTSERD
soluble fraction (log2): -1.92

HMTSKTLSAVEGEGLRLDKFLSNQLPELSRTKIQKMINDGLVFVNNTEAKASLILDGSEFIAYTVPD
soluble fraction (log2): -0.243

HMTSLAEQAYRHIRDKLSNGAFVPGEQLVNRVLATEIGVSVIPVREAINRLATEGLVKHVPGSGAFVRQ
soluble fraction (log2): -0.0622

HMTSLYDILGIAKTADSQTIKTAFKKKALLYHPDKNNGNLKKEEIFKKISTAYQILSDPKSRANYDLSIA
soluble fraction (log2): -0.272

HMTSMNNTEELIDMANKIIDNNPNMVLKYKEGRNVLDFFIGQVMKETKGRANPSATSKIFKDLLEK
soluble fraction (log2): -0.0827

HMTSNKTVPYSELKGLISTGKIEYVGIGNTQIRAVSKSGAGIVTYTARRVIPDDTLIPELEKNGIAYGGI
soluble fraction (log2): -0.838

HMTSNSLNLKDEISAFLTKNAGISYSAERIAHALNMDNADQFTPIIQTLAQLEREKKVRVTDKGEFEAVIK
soluble fraction (log2): 0.02

HMTSSKISFIDPVNGGKVSVSLENSTLEKLQNRFGVNSVVRNEAGDVELKDKAQEFVAGWFADIAYTRG
soluble fraction (log2): -0.0154

HMTTAGTAIVQTGNSGKLNLREQAYANAGILGRYSNGTAVTVLQKGAAWSYVEVKGQKGYMMSKFLKFTS
soluble fraction (log2): -1.53

HMTTEIVRMKKDVKIGQEITAKDIEVVEVGAYNLPDEVIRSSEEVVGKYVSSELLKGEYVLPSKISDTP
soluble fraction (log2): 0.22

HMTTEPYILTRMPDGSIKAEPNLNYKGPEQKPGSNIQVKGADGRIYLVPIDGQGKPGKPQLVD
soluble fraction (log2): 0.0898

HMTTGLETYPGKIAVVSDDFIDGEGRVQLDGALWRAKTKDHQQLKQGDHVTIVNVKGLTLTVMPDD
soluble fraction (log2): 0.716

HMTTGREGLIGAVGTVRQAIAPEGYVFVEGELWRAKSPAGPLEPGTTVRVIAIDGLTLTVMPAE
soluble fraction (log2): -0.965

HMTTGTVKWFNDAKGFGFITPDDRSVDVFVHYSNIVGQSGRRTLMEGERVEYEAIEGPKGPQATDVARA
soluble fraction (log2): -0.223

HMTTIFDNINGELRRRHLTQQDLAKTIEIDRRTWSKWQDKNDMPASVLLQIAKWLNVTLDYLTRD
soluble fraction (log2): -2.57

HMTTIKLTQEDVEKIKSLPKRTFLIGNLQQTGLYDEKTRRFYYLDANGEWNGRLAIINTPPPPPPPP
soluble fraction (log2): 0.0273

HMTTKYMVLVNWVKEKVRTNELKTGEKLYSEHEFSRMFHMSRQTVRHGISILERENIVERRQGSGTFIKDA
soluble fraction (log2): -2.95

HMTTKYVAVHESKDGYWTIASKPSSKEDAEAMLGGTPKNEVGKVVTLEEAKAHKKTLGEEYLYE
soluble fraction (log2): 0.218

HMTTMTTGQRIAAKRKEQGLSQENLGEQLGVSRQAIYKWESDASLPDIDKLIALSRLFGVSTDYLLLE
soluble fraction (log2): -0.584

HMTTQIPEEVQKRVNQFYEALDEEDYGEAKQILEELEKATAPDHPTLIQMRTRYEFDTMELR
soluble fraction (log2): 0.329

HMTTTPAERQRTILRSLNRVDPVSVDALARLTGVSVVTIRRDLSDLASRDLIRRVHGGALLPTR
soluble fraction (log2): -1.62

HMTTYSVDLGDIRAVADSDGKLVELTLHAAVTTHYSHSELADRLNLAFTALREEAQADYETRY
soluble fraction (log2): 0.223

HMTTYTGVVTGSGVNVRSGAGTSYPVVGSKTMGDVVTITETVSADGMIWGKIDIGWISMNYVRM
soluble fraction (log2): -2.75

HMTVAQEIEARRATIRSSDPAEMARFIRWLIMEGHTEPAADELKKYAENFPEASATTKQLQALLAAR
soluble fraction (log2): -0.311

HMTVDIADALRVLGLSDAPDWSDVRAAHRRAIVRTHPDAGGSAGDAARVNQAFDLLRKISGNGERPIPG
soluble fraction (log2): 0.012

HMTVDTSELEEMIDDLIKEHPNEWERYSSGEKKVQGFFVGQVMKATSGQADGKAINQILSKRVKS
soluble fraction (log2): 0.803

HMTVDYDKFTKDTVVQHNKFGKGVIIMTSGDGEDKIASIAFQGLGVKRFSLAIAASNLKILGKVNED
soluble fraction (log2): -2.48

HMTVEVFQSLVQTFREMSPRKAASILEELKRDLAVEILLHMPEDGVAAILARMDPARAARLTEQLALEKD
soluble fraction (log2): -1.86

HMTVGEAHLEEVYLKVLKQVEEQGTALIRTTDVETGRPAAGIRRRYMRGTLPDEWVAKFEALPGWTWAPG
soluble fraction (log2): -3.04
